In data set [1] the test system is cathepsin D.
Data set [2] deals with uteroferrin (UniProt P09889).
Data set [3] deals with RNAse B.

Experimental findings from patent US20030148460 are described below.

UniProt P09889, sequence (P09889 22-340): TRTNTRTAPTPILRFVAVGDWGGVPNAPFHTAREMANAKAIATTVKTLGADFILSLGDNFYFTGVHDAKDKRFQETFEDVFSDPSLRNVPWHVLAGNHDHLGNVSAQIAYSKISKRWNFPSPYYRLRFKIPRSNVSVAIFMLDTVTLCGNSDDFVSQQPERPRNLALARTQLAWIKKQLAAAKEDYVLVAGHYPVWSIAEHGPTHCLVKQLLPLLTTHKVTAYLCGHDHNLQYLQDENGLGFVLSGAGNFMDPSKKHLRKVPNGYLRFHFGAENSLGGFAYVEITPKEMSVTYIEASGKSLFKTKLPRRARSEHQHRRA

Turning to “bovine GlcNAc-phosphotransferase (UDP-N-acetylglucosamine: lysosomal enzyme N-Acetylglucosamine-1-phosphotransferase)”, the “Km as acceptor for transfer of GlcNAc-1-P” value in data set [1] was “Both uteroferrin and cathepsin D are effectively utilized as acceptors by purified GlcNAc-phosphotransferase with Kms below 20 µM”; in data set [2], “Both uteroferrin and cathepsin D are effectively utilized as acceptors by purified GlcNAc-phosphotransferase with Kms below 20 µM”; in data set [3] it was “the Km was not reached at the solubility limit of the protein (at 600 µM)”.
